# According to the supplement of paper PMC9170038:
# Tested on: MS2 coat protein
# Test: apparent KD of MS2 coat protein; designed switch direction (-1 OFF switch, 1 ON switch): -1; higher = weaker reporter binding
# Method in brief: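 For each design, the apparent KD is the median over clusters of curves fitted to normalised cluster fluorescence. Clusters held RNA switches with common flanks, transcribed on Illumina chips by stalled E. coli RNA polymerase. These were titrated with SNAP-549-labelled MS2 coat protein, doubling from 0.7 or 1.5 nM to 3 µM, without input, with 200 uM small-molecule ligand, or with an oligonucleotide input.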
# [1] = input ligand: microRNA oligo, concentration not stated
Sequence,apparent KD of MS2 coat protein (input ligand: FMN 200 uM),apparent KD of MS2 coat protein [1],apparent KD of MS2 coat protein (input ligand: none)
"ACAUGAGGAUCACCCAUGUCCGGCUGGUCUGGUCCGGCUGUCGAGGAUAUAGUCCGGUGUUCGCGCUAGAAGGCGAGGGCUGGA [Aenatbe mod 49] (Eterna round: R96, puzzle: Exclusion NG 3)",109 nM,68.3 nM,97.5 nM
"ACAUGAGGAUCACCCAUGUCCGGCUGGUCUGUCUCGGCUGUCGAGGAUAUAGCACGGUAUCCGCGCUAGAAGGCGGGAGCCGGA [Aenatbe mod 86] (Eterna round: R96, puzzle: Exclusion NG 3)",120 nM,47.1 nM,38.8 nM
"ACAUGAGGAUCACCCAUGUCCGGCUGGUCUGUUCCGGUUGUCGAGGAUAUAGUUCGGUGUUCGCGCUAGAAGGUGGGAGCUGGG [Aenatbe mod 55] (Eterna round: R96, puzzle: Exclusion NG 3)",308 nM,163 nM,190 nM
"ACAUGAGGAUCACCCAUGUCCGUCUGGUCUGUCUCGGCUGUCGAGGAUAUAGCUCGGUAUCCGCGCUAGAAGGCGGGAGUCGGG [Aenatbe mod 95] (Eterna round: R96, puzzle: Exclusion NG 3)",36.1 nM,60.9 nM,61.9 nM
"ACAUGAGGAUCACCCAUGUCGACGAAAAGGCUCAUGUAGAGUGAGGAUAUGUGAGACGAACGAGAACAGAAGGCACAAGACAGG [Deportation 4 - Jieux - Exclusion NG 3] (Eterna round: R96, puzzle: Exclusion NG 3)",85.8 nM,58.9 nM,52.3 nM
"ACAUGAGGAUCACCCAUGUCGAGUACAUGAGGAUCACCCAUGUAGGAUAUGGUUCGCUUUGCGUGCUAGAAGGAUAUGUGAUGG [salish99_ExNG3_r04_513] (Eterna round: R96, puzzle: Exclusion NG 3)",396 nM,217 nM,329 nM
"ACAUGAGGAUCACCCAUGUCUGGCGGGUCCUCUCCGGCUGUUGAGGAUAUAGUCCGGUAUCCGCGCUAGAAGGUGAGGGCCGGC [Aenatbe mod 19] (Eterna round: R96, puzzle: Exclusion NG 3)",21.8 nM,13.8 nM,23.5 nM
"ACAUGAGGAUCACCCAUGUCUGGCUGGUCCGCUCCGGCUGUUGAGGAUAUAGUUCGGUGUCCGCGCUAGAAGGUGAGGGCUGGC [Aenatbe mod 35] (Eterna round: R96, puzzle: Exclusion NG 3)",21.8 nM,21.2 nM,31.3 nM
"ACAUGAGGAUCACCCAUGUCUGGCUGGUCCGUCUCGGCUGUCGAGGAUAUGGCUCGGUGUCCGCGCUAGAAGGCGGGAGCUGGC [Aenatbe mod 80] (Eterna round: R96, puzzle: Exclusion NG 3)",75.2 nM,46.2 nM,89.3 nM
"ACAUGAGGAUCACCCAUGUGAAAACAAUGGCUGACAAAGAGAUAGGAUAUAUGUGCAUAUCAAACAUAGAAGGGUCAUUACUGG [Deportation 87 - Jieux - Exclusion NG 3] (Eterna round: R96, puzzle: Exclusion NG 3)",42.7 nM,42.5 nM,49.8 nM
"ACAUGAGGAUCACCCAUGUGAAAAGAAUGGCUGACACAGAGAUAGGAUAUAUGUGCAUAUCAAACAUAGAAGGGUCAUAACUGG [Deportation 84 - Jieux - Exclusion NG 3] (Eterna round: R96, puzzle: Exclusion NG 3)",28.4 nM,29.4 nM,30.5 nM
"ACAUGAGGAUCACCCAUGUGACAACAAUGGCUGAUAUAGAAACAGGAUAUUCGUGAAUAUCUAACGAAGAAGGGUUAUGACUGG [Deportation 66 - Jieux - Exclusion NG 3] (Eterna round: R96, puzzle: Exclusion NG 3)",50.4 nM,43.1 nM,54.1 nM
"ACAUGAGGAUCACCCAUGUGACAAGAAUGGCUGAUAAAGAGACAGGAUAUAGGUGCAUAUCUAACCUAGAAGGGUCAUGACUGG [Deportation 74 - Jieux - Exclusion NG 3] (Eterna round: R96, puzzle: Exclusion NG 3)",38.5 nM,28.3 nM,38.1 nM
"ACAUGAGGAUCACCCAUGUGACAAGAAUGGCUGAUACAGAGACAGGAUAUAGGUGCAUAUCUAACCUAGAAGGGUCAUGACUGG [Deportation 73 - Jieux - Exclusion NG 3] (Eterna round: R96, puzzle: Exclusion NG 3)",–,26.6 nM,–
